In patent US11167035B2, “Insulin compositions and method of making a composition” (Novo Nordisk A/S, priority 2005, dated 2021):

Experiment: SEC on Superose 6 PC, insulin self association
Format: physicochemical
Conditions: 600 μM insulin
Procedure: Analysis by size exclusion chromatography (SEC) on a Superose 6 PC column (0.32*30 cm) using isotonic 10 mM tris-buffered saline optionally added 2 mM phenol at 37° C. and pH 7.3, injection volume of 20 μL, flow of 0.05 mL/min and run time 130 min. First reference of Blue dextran (>>5 MDa, KAV 0.0), Thyroglobulin (669 kDa, KAV 0.28), Ferritin (440 kDa, KAV 0.39), Ovalbumin (44.5 kDa, KAV 0.56), Ribonuclease (13.7 kDa, KAV 0.69) and a second reference of Albumin (66 kDa, KAV 0.53), Co(III)insulin-hexamer (35 kDa, KAV 0.61), and monomeric insulin X2 (6 kDa, KAV 0.73). Retention time of blue dextran was 17.9 min (to) and 0.74 min without column (td), and retention time of albumin (HSA) was about 34.1 min, KAV=(t−t0)/(V/f+td−t0) with
KAV area peak1 is measured from KAV=0 to KAV=0.46 (32 min) as relative area % of total area for KAV<0.46 corresponding to self association larger than albumin. For KAV peak 1 about 0.56 (albumin size) integration cut is between albumin size and insulin hexamer size.
For SEC method without phenol in eluent peak1 contain associated forms larger than albumin and peak2 contain dihexameric, hexameric, dimeric and monomeric forms of insulin.
For SEC method including 2 mM phenol in the eluent peak1 contain dihexameric and other larger forms of insulin and peak2 contain hexameric, dimeric and monomeric forms of insulin.
The formulations were studied after storage 2 week at 37C compared to storage at 5C by the SEC method described in example 4 using an eluent with 2 mM phenol. Reference formulations without citrate at 3, 5 and 6 Zn/6ins.deriv. were included.

Substance: B29Nε-(2-{[(2-Carboxy-ethyl)-(15-carboxy-pentadecanoyl)-amino]-methyl}-benzoyl) desB30 human insulin
- Kav 2 Zn peak 1 (2 zinc/hexamer): 0.16
- Relative area % peak 1 (2 zinc/hexamer): 54%
- Kav 6 Zn peak 1 (6 zinc/hexamer): 0.03
- Relative area % peak 1 (6 zinc/hexamer): 93%

Substance: B29Nε-(4-{[(2-Carboxy-ethyl)-(14-carboxy-tetradecanoyl)-amino]-methyl}-benzoyl) desB30 human insulin
- Kav 2 Zn peak 1 (2 zinc/hexamer): 0.09
- Relative area % peak 1 (2 zinc/hexamer): 55%
- Kav 6 Zn peak 1 (6 zinc/hexamer): 0.00
- Relative area % peak 1 (6 zinc/hexamer): 96%

Substance: B29Nε-(4-{[(2-Carboxy-ethyl)-(15-carboxy-pentadecanoyl)-amino]-methyl}-benzoyl) desB30 human insulin
- Kav 2 Zn peak 1 (2 zinc/hexamer): 0.01
- Relative area % peak 1 (2 zinc/hexamer): 84%
- Kav 6 Zn peak 1 (6 zinc/hexamer): 0.00
- Relative area % peak 1 (6 zinc/hexamer): 98%

Substance: B29Nε-[(5-{[(2-Carboxy-ethyl)-(15-carboxy-pentadecanoyl)-amino]-methyl}-furan-2-carbonyl) desB30 human insulin
- Kav 2 Zn peak 1 (2 zinc/hexamer): 0.02
- Relative area % peak 1 (2 zinc/hexamer): 81%
- Kav 6 Zn peak 1 (6 zinc/hexamer): 0.03
- Relative area % peak 1 (6 zinc/hexamer): 96%

Substance: B29Nε-hexadecandioyl-gamma-Glu-(3-(2-{2-[2-(2-amino-ethoxy)-ethoxy]-ethoxy}-ethoxy)-propionyl desB30 human insulin
- Kav 2 Zn peak 1 (2 zinc/hexamer): 0.09
- Relative area % peak 1 (2 zinc/hexamer): 79%
- Kav 6 Zn peak 1 (6 zinc/hexamer): 0.06
- Relative area % peak 1 (6 zinc/hexamer): 89%
